{"source": "patent US20140241987A1", "key": {"[1]": {"target": "α-synuclein fibrils (human) (UniProt P37840)", "test": "SPR, BIAcore X100, fibrils immobilised on CM5, mAb injected"}, "[2]": {"target": "α-synuclein fibrils (human) (UniProt P37840)", "test": "inhibition ELISA, fibrils against monomers"}}, "data": [{"substance": "Syn-O1 (antibody)", "values": [{"measurement": "Kd", "setting": "[1]", "result": 0.016, "unit": "nM"}, {"measurement": "koff", "setting": "[1]", "result": "9.36e-05", "unit": "s⁻¹"}, {"measurement": "kon", "setting": "[1]", "result": "5.86e+06", "unit": "M⁻¹ s⁻¹"}, {"measurement": "Fold Affinity to Fibrils", "setting": "[2]", "result": 12700, "unit": "fold"}]}, {"substance": "Syn-O2 (antibody)", "values": [{"measurement": "Kd", "setting": "[1]", "result": 0.0969, "unit": "nM"}, {"measurement": "koff", "setting": "[1]", "result": 0.00127, "unit": "s⁻¹"}, {"measurement": "kon", "setting": "[1]", "result": "1.31e+07", "unit": "M⁻¹ s⁻¹"}, {"measurement": "Fold Affinity to Fibrils", "setting": "[2]", "result": 27300, "unit": "fold"}]}, {"substance": "Syn-O3 (antibody)", "values": [{"measurement": "Kd", "setting": "[1]", "result": 0.171, "unit": "nM"}, {"measurement": "koff", "setting": "[1]", "result": 0.000379, "unit": "s⁻¹"}, {"measurement": "kon", "setting": "[1]", "result": "2.22e+06", "unit": "M⁻¹ s⁻¹"}, {"measurement": "Fold Affinity to Fibrils", "setting": "[2]", "result": 11100, "unit": "fold"}]}, {"substance": "Syn-O4 (antibody)", "values": [{"measurement": "Kd", "setting": "[1]", "result": 0.138, "unit": "nM"}, {"measurement": "koff", "setting": "[1]", "result": 0.000996, "unit": "s⁻¹"}, {"measurement": "kon", "setting": "[1]", "result": "7.24e+06", "unit": "M⁻¹ s⁻¹"}, {"measurement": "Fold Affinity to Fibrils", "setting": "[2]", "result": 6930, "unit": "fold"}]}]}
